Test results reported in US20130089554A1 (EMERGENT PRODUCT DEVELOPMENT SEATTLE, published 2013).

Tests used:
RON Sema-PSI-AFH protein [1] = target: T1, RON Sema-PSI-AFH protein (human, UniProt Q04912 25-568); assay: SPR (Biacore T100); antibody captured by immobilized anti-mouse Fc, soluble RON Sema-PSI-AFH flowed over
T1 construct: Produced in CHOK1SV cells; also called soluble RON Sema-PSI-AFH; not shown: c-terminal tag including avidin, 3xFLAG and 6x histidine tags
T1 chain: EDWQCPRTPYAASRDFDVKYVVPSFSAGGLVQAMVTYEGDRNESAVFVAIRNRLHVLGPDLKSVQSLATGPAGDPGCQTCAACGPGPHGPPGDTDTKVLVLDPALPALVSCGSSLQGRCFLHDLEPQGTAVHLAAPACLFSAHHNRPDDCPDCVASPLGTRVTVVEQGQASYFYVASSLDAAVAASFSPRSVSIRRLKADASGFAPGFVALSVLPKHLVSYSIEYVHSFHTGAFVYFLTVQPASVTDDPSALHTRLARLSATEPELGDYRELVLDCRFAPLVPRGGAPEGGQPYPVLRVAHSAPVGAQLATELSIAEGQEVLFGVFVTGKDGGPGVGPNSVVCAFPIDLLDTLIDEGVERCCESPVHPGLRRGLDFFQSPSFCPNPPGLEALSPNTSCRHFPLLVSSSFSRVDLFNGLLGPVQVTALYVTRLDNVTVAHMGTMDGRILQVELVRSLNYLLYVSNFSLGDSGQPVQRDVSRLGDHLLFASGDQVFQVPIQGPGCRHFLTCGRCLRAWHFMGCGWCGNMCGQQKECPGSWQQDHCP
Procedure: (§1) The binding kinetics of RON-f murine antibody, SMIP and Interceptor to soluble RON Sema-PSI-AFH were determined using a Biacore T100 (GE Healthcare, Piscataway, N.J.). Anti-RON murine antibody was captured using immobilized anti-mouse Fc polyclonal antibody while the SMIP and Interceptor were captured by anti-human Fc monoclonal antibody. The capture antibodies, both from GE Healthcare, were covalently conjugated to a carboxylmethyl dextran surface (CM4) via amines using N-ethyl-N′-(3-dimethylaminopropyl)-carbodiimide hydrochloride and N-hydroxysuccinimide. The unoccupied sites of the activated surface were blocked by ethanolamine. […] During each cycle, a single concentration of soluble RON Sema-PSI-AFH was injected and then allowed to dissociate. At the end of each cycle, the surface was regenerated gently using 3M MgCl₂ which dissociates protein bound to the capture antibodies. Signal associated with binding to the reference cell was used to subtract for bulk refractive changes and blank (buffer-only) injections were used to correct for drift and system noise.
(§2) Kinetic parameters and affinities were determined using BIAevaluation software. The kₐ (M⁻¹s⁻¹) and kd (s⁻¹) rates of the interaction were used to calculate the affinity constant, KD (M), of the antibody/receptor interaction. The KD is defined as the ratio of the kd and kₐ constants (kd/kₐ). The RON-f01 murine antibody was tested in a single experiment while the RON-f02 SMIP and RON-f03 Interceptor molecules were each tested in three independent experiments. RON-f molecules were captured on a sensor chip with immobilized anti-Fc while soluble RON Sema-PSI-AFH protein was flowed over the surface at varying concentrations.

[2] = target: T2, recombinant RON Sema-PSI protein (R&D Systems #1947-MS) (human, UniProt Q04912 25-571); assay: ELISA, plate coated with 1 µg/ml recombinant RON Sema-PSI, hybridoma supernatants
T2 construct: Bought protein, expressed in NS0 cells; not shown: carboxyl-terminal histidine tag
Procedure: (§3) To determine binding of murine antibodies to the Sema-PSI domain of RON, 96-well EIA/RIA microplates were coated with 1 μg/ml recombinant RON Sema-PSI (R&D Systems #1947-MS, Minneapolis, Minn.). This protein includes the Sema and PSI domains of human RON (Glu 25-Leu 571; see SEQ ID NO:784) coupled to a carboxyl-terminal histidine tag and expressed in the NS0 mouse myeloma cell line. Plates were blocked with 10% FBS in DPBS prior to adding hybridoma supernatants diluted […] in serum diluent. Murine antibodies bound to recombinant RON Sema-PSI were detected as described above.
(§4) “Diluent only” samples represent background binding in each assay when only serum diluent was run as the sample. As a positive control for IgG measurement and recombinant RON Sema-PSI binding, 250 ng/ml of an anti-human RON antibody (R&D Systems #MAB691, Minneapolis, Minn.) was tested in both ELISAs.

[3] = target: T3, human RON (recepteur d'origine Nantaise, MST1R), full length on cells (human, UniProt Q04912 25-1400); assay: flow cytometry, NIH/3T3 cells transfected with human RON, hybridoma supernatant
T3 construct: Over-expressed on transfected NIH/3T3 cells, or native on BxPC-3 and MDA-MB-453 cells; also called native human RON
Description: NIH/3T3 cells transfected with human or macaque RON or empty vector, were dissociated with trypsin and stained at 1.6×10⁵ cells/sample on ice with hybridoma supernatants or purified antibodies diluted in Staining Buffer (2% FBS in Dulbecco's PBS). Unlabeled murine IgG (SouthernBiotech, Birmingham, Ala.) and the DX07 anti-RON β-chain antibody (Santa Cruz Biotechnology, Santa Cruz, Calif.) were employed as negative and positive controls respectively. Murine antibodies were detected with R-PE-conjugated goat anti-mouse IgG (SouthernBiotech). Samples were analyzed on a BD FACSCalibur flow cytometer fitted with an HTS using PlateManager and CellQuest Pro software (BD Biosciences, San Jose, Calif.). Data was plotted using FlowJo software (Tree Star, Ashland, Oreg.).
NIH/3T3 cells transfected with empty vector (dashed), human RON (dotted) or Macaca mulatta RON (solid) were stained with secondary antibody alone (FIG. 1A), 1 mg/ml murine IgG (FIG. 1B), 1 mg/ml DX07 anti-RON antibody (FIG. 1C), RON-e01 anti-RON hybridoma supernatant (FIG. 1D) or RON-f01 anti-RON hybridoma supernatant (FIG. 1E).

[4] = target: T2, recombinant RON Sema-PSI protein (R&D …); assay: ELISA, plate coated with 1 µg/ml recombinant RON Sema-PSI
Procedure: as §3, §4

RON Sema-PSI-AFH protein [5] = target: T1, RON Sema-PSI-AFH protein; assay: SPR (Biacore T100); Interceptor captured by immobilized anti-human Fc, soluble RON Sema-PSI-AFH flowed over
Procedure: as §1, §2

B1: RON-f01 murine antibody (4C04 hybridoma) (antibody, V domains shown)
VH: QIQLQQSGPELVKPGTSVKISCKASDYTLTDFYMNWVRQKPGQGLEWIGRIYPGTDKTRYNEKFRDKAILTVDTSSSTAYMQLSSLTSEDTAVYFCARSAYYGNYVAMDYWGQGTSVTVSL
VL: DIQMTQSPASQSASLGESVTITCLASQTIGTWLAWYQQKPGKSPQLLIYAATSLADGVPSRFSASGSGTKFSFKIDSLQSEDFVSYYCQQLYNTPWTFGGGTKLEIK
notes: Murine monoclonal antibody from a hybridoma; also called RON-f01 Antibody
- Kd (RON Sema-PSI-AFH protein [1]): 150 pM
- koff (RON Sema-PSI-AFH protein [1]): 9.49e-05 s⁻¹
- kon (RON Sema-PSI-AFH protein [1]): 632000 M⁻¹ s⁻¹
- binding result [2]: binds
- binding result [3]: binds

B2: RON-e01 murine antibody (11H09 hybridoma) (antibody, V domains shown)
VH: QVQLQQSGAELAKPGASVKMSCKSSGYTFTSYWIHWVKERPGQGLEWIGYIYPTTGYTESNQKFKDKATLTADKSSSTAYMQLSSLTSEDSAVYYCFLLRPWYFDVWGAGTTVTVSS
VL: DIQMTQSPSSLSASLGERVSLTCRASQDIGSSLSWLQQEPDGTIKRLIYSTSSLDSGVPKRFSGSRSGSDYSLTISSLESEDFVDYYCLQYASSPWTFGGGTKLEIK
notes: Murine monoclonal antibody from a hybridoma, used as supernatant or purified; also called RON-e01 Antibody
- binding result [3]: binds
- binding result [4]: no binding

B3: RON-f03 Interceptor (4C04 scFv, Interceptor Pair 2) (other)
chain 1: DIQMTQSPASQSASLGESVTITCLASQTIGTWLAWYQQKPGKSPQLLIYAATSLADGVPSRFSASGSGTKFSFKIDSLQSEDFVSYYCQQLYNTPWTFGGGTKLEIKGGGGSGGGGSGGGGSQIQLQQSGPELVKPGTSVKISCKASDYTLTDFYMNWVRQKPGQGLEWIGRIYPGTDKTRYNEKFRDKAILTVDTSSSTAYMQLSSLTSEDTAVYFCARSAYYGNYVAMDYWGQGTSVTVSSSASTKGPSVFPLAPSSKSTSGGTAALGCLVKDYFPEPVTVSWNSGALTSGVHTFPAVLQSSGLYSLSSVVTVPSSSLGTQTYICNVNHKPSNTKVDKKVRTEPKSSDKTHTCPPCPSGAPELLGGPSVFLFPPKPKDTLMISRTPEVTCVVVDVSHEDPEVKFNWYVDGVEVHNAKTKPREEQYNSTYRVVSVLTVLHQDWLNGKEYKCKVSNKALPAPIEKTISKAKGQPREPQVYTLPPSRDELTKNQVSLTCLVKGFYPSDIAVEWESNGQPENNYKTTPPVLDSDGSFFLYSKLTVDKSRWQQGNVFSCSVMHEALHNHYTQKSLSLSPGKSRTVAAPSVFIFPPSDEQLKSGTASVVCLLNNFYPREAKVQWKVDNALQSGNSQESVTEQDSKDSTYSLSSTLTLSKADYEKHKVYACEVTHQGLSSPVTKSFNRGE
chain 2: TVAAPSVFIFPPSDEQLKSGTASVVCLLNNFYPREAKVQWKVDNALQSGNSQESVTEQDSKDSTYSLSSTLTLSKADYEKHKVYACEVTHQGLSSPVTKSFNRGERTEPKSSDKTHTCPPCPSGAPELLGGPSVFLFPPKPKDTLMISRTPEVTCVVVDVSHEDPEVKFNWYVDGVEVHNAKTKPREEQYNSTYRVVSVLTVLHQDWLNGKEYKCKVSNKALPAPIEKTISKAKGQPREPQVYTLPPSRDELTKNQVSLTCLVKGFYPSDIAVEWESNGQPENNYKTTPPVLDSDGSFFLYSKLTVDKSRWQQGNVFSCSVMHEALHNHYTQKSLSLSPGKSRASTKGPSVFPLAPSSKSTSGGTAALGCLVKDYFPEPVTVSWNSGALTSGVHTFPAVLQSSGLYSLSSVVTVPSSSLGTQTYICNVNHKPSNTKVDKKV
notes: also called RON-f03 2nd generation interceptor
- Kd (RON Sema-PSI-AFH protein [5]): 156 pM
- koff (RON Sema-PSI-AFH protein [5]): 6.78e-05 s⁻¹
- kon (RON Sema-PSI-AFH protein [5]): 434000 M⁻¹ s⁻¹
